From the supplement of paper PMC10724198
± gives the standard deviation of the averaged measurements.

What was measured:
Saccharomyces cerevisiae [1] = experiment: protein stability index of tFT-peptide fusion (C-terminal peptide) (PSI (0-1 scale)); higher = more stable (slower turnover)
Protocol: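 MPS profiling in S. cerevisiae of the tFT-X12 degron library: putative degron peptides plus stable controls, 12 aa, fused to the C-terminus of a sfGFP-mCherry timer. Cells are FACS-sorted into 8 mCherry/sfGFP bins and deep-sequenced. PSI runs from 0 (unstable) to 1 (stable). Backgrounds are wild type, das1Δ and doa10Δ at 30 °C, and wild type, das1Δ, cdc34-1 and cdc53-1 at 37 °C; 2-3 technical replicates each.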

Saccharomyces cerevisiae [2] = experiment: as above; conditions: genetic background: wild type; temperature: 30 C
[3] = genetic background: cdc34-1, temperature: 37 C
[4] = genetic background: cdc53-1, temperature: 37 C
[5] = genetic background: das1 deletion, temperature: 30 C
[6] = genetic background: das1 deletion, temperature: 37 C
[7] = genetic background: doa10 deletion, temperature: 30 C
[8] = genetic background: wild type, temperature: 30 C
[9] = genetic background: wild type, temperature: 37 C
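Also: PSI is a weighted mean of sequencing reads over stability bins, variants kept only with over 10 reads, mCherry proximal and sfGFP distal, peptide attached via GGGS linker.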

Sequence | protein stability index (Saccharomyces cerevisiae [1]; [3]) | protein stability index (Saccharomyces cerevisiae [1]; [4]) | protein stability index (Saccharomyces cerevisiae [1]; [5]) | protein stability index (Saccharomyces cerevisiae [1]; [6]) | protein stability index (Saccharomyces cerevisiae [1]; [7]) | protein stability index (Saccharomyces cerevisiae [1]; [8]) | protein stability index (Saccharomyces cerevisiae [1]; [9]) | protein stability index (Saccharomyces cerevisiae [2])
RNTLLFKRILHI | 0.671 ± 0.028 | 0.706 ± 0.017 | 0.637 ± 0.032 | 0.77 ± 0.018 | 0.0865 ± 0.024 | 0.108 ± 0.045 | 0.154 ± 0.0032 | 0.165 ± 0.059
RPPSLVFLFLLT | 0.551 ± 0.062 | 0.587 ± 0.021 | 0.441 ± 0.048 | 0.598 ± 0.01 | 0.401 ± 0.026 | 0.395 ± 0.015 | 0.573 ± 0.023 | 0.441 ± 0.032
RRGGNIVWYCLV | 0.588 ± 0.025 | 0.694 ± 0.015 | 0.634 ± 0.0066 | 0.714 ± 0.011 | 0.125 ± 0.0088 | 0.148 ± 0.017 | 0.24 ± 0.0074 | 0.234 ± 0.017
RRIILAGLFLIS | 0.586 ± 0.028 | 0.613 ± 0.029 | 0.437 ± 0.033 | 0.623 ± 0.046 | 0.332 ± 0.021 | 0.353 ± 0.014 | 0.537 ± 0.0093 | 0.403 ± 0.0097
RRMGLRLFLLWM | 0.649 ± 0.045 | 0.657 ± 0.0097 | 0.534 ± 0.026 | 0.67 ± 0.015 | 0.354 ± 0.021 | 0.348 ± 0.032 | 0.539 ± 0.015 | 0.4517 ± 0.0011
RSAVECRVTNIR | 0.701 ± 0.031 | 0.7227 ± 0.00094 | 0.637 ± 0.018 | 0.724 ± 0.01 | 0.639 ± 0.015 | 0.658 ± 0.036 | 0.715 ± 0.024 | 0.546 ± 0.08
RSFSKRSFMFLC | 0.621 ± 0.025 | 0.728 ± 0.11 | 0.646 ± 0.018 | 0.734 ± 0.0094 | 0.154 ± 0.0079 | 0.172 ± 0.0087 | 0.227 ± 0.0064 | 0.263 ± 0.012
RSNLSKSWHRIG | 0.538 ± 0.065 | 0.689 ± 0.014 | 0.645 ± 0.028 | 0.743 ± 0.015 | 0.101 ± 0.011 | 0.11 ± 0.029 | 0.212 ± 0.074 | 0.207 ± 0.038
RTMLSNRIKSFI | 0.6235 ± 0.0026 | 0.701 ± 0.038 | 0.642 ± 0.014 | 0.723 ± 0.02 | 0.239 ± 0.0068 | 0.244 ± 0.021 | 0.519 ± 0.025 | 0.415 ± 0.014
RVRRETRLRQIA | 0.597 ± 0.0087 | 0.732 ± 0.043 | 0.65 ± 0.024 | 0.71 ± 0.021 | 0.1423 ± 0.00049 | 0.147 ± 0.0031 | 0.269 ± 0.0076 | 0.27 ± 0.047
RVVNRWGVCFLG | 0.6 ± 0.0065 | 0.7178 ± 0.0067 | 0.639 ± 0.014 | 0.733 ± 0.021 | 0.124 ± 0.014 | 0.131 ± 0.0093 | 0.199 ± 0.015 | 0.231 ± 0.0097
RVWTTVFIIRAT | 0.595 ± 0.032 | 0.609 ± 0.055 | 0.493 ± 0.03 | 0.6146 ± 0.0043 | 0.216 ± 0.023 | 0.229 ± 0.024 | 0.424 ± 0.023 | 0.333 ± 0.062
RYLHFASLLFAS | 0.658 ± 0.019 | 0.709 ± 0.0084 | 0.585 ± 0.012 | 0.729 ± 0.0093 | 0.179 ± 0.006 | 0.226 ± 0.035 | 0.52 ± 0.016 | 0.364 ± 0.014
SDVLVVWVFFCR | 0.292 ± 0.0075 | 0.4196 ± 0.0033 | 0.26 ± 0.032 | 0.466 ± 0.013 | 0.216 ± 0.029 | 0.263 ± 0.037 | 0.435 ± 0.0063 | 0.405 ± 0.043
SELLVHVVFWLA | 0.268 ± 0.013 | 0.438 ± 0.038 | 0.289 ± 0.03 | 0.463 ± 0.012 | 0.1383 ± 0.00086 | 0.176 ± 0.019 | 0.303 ± 0.011 | 0.247 ± 0.025
SFAVSSDYLFII | 0.69 ± 0.099 | 0.788 ± 0.028 | 0.689 ± 0.034 | 0.808 ± 0.032 | 0.316 ± 0.037 | 0.361 ± 0.023 | 0.582 ± 0.01 | 0.401 ± 0.019
SFCSFVFVTFVL | 0.4 ± 0.031 | 0.4842 ± 0.0023 | 0.321 ± 0.044 | 0.508 ± 0.022 | 0.317 ± 0.016 | 0.312 ± 0.02 | 0.52 ± 0.058 | 0.455 ± 0.033
SFFCFFLSFFYL | 0.571 ± 0.027 | 0.53 ± 0.0091 | 0.471 ± 0.011 | 0.562 ± 0.018 | 0.475 ± 0.025 | 0.445 ± 0.013 | 0.539 ± 0.02 | 0.502 ± 0.015
SFFSQAIPILAA | 0.0333 ± 0.0079 | 0.039 ± 0.0039 | 0.152 ± 0.027 | 0.115 ± 0.015 | 0.129 ± 0.0039 | 0.15 ± 0.021 | 0.0837 ± 0.023 | 0.225 ± 0.072
SFLCILIFPFFP | 0.497 ± 0.051 | 0.6 ± 0.015 | 0.411 ± 0.02 | 0.6 ± 0.015 | 0.391 ± 0.011 | 0.408 ± 0.028 | 0.5623 ± 0.0044 | 0.469 ± 0.034

Sequence | protein stability index (Saccharomyces cerevisiae [1]; [3]) | protein stability index (Saccharomyces cerevisiae [1]; [4]) | protein stability index (Saccharomyces cerevisiae [1]; [5]) | protein stability index (Saccharomyces cerevisiae [1]; [6]) | protein stability index (Saccharomyces cerevisiae [1]; [7]) | protein stability index (Saccharomyces cerevisiae [1]; [8]) | protein stability index (Saccharomyces cerevisiae [1]; [9]) | protein stability index (Saccharomyces cerevisiae [2])
SFSFRPCLLLFF | 0.32771 ± 1.1e-05 | 0.355 ± 0.0074 | 0.357 ± 0.036 | 0.51 ± 0.0096 | 0.38211 ± 0.00035 | 0.283 ± 0.033 | 0.417 ± 0.021 | 0.336 ± 0.099
SFVFLVRRWLFV | 0.354 ± 0.071 | 0.582 ± 0.02 | 0.563 ± 0.011 | 0.622 ± 0.023 | 0.136 ± 0.0077 | 0.133 ± 0.017 | 0.159 ± 0.011 | 0.213 ± 0.025
SFYVCVPVLWLV | 0.248 ± 0.024 | 0.29 ± 0.036 | 0.27 ± 0.029 | 0.407 ± 0.0054 | 0.136 ± 0.0076 | 0.118 ± 0.015 | 0.146 ± 0.028 | 0.201 ± 0.0038
SGRAWRLRMHVI | 0.663 ± 0.02 | 0.749 ± 0.011 | 0.661 ± 0.037 | 0.757 ± 0.018 | 0.263 ± 0.0029 | 0.269 ± 0.012 | 0.459 ± 0.041 | 0.406 ± 0.17
SGRFRAFVLRSM | 0.692 ± 0.012 | 0.746 ± 0.01 | 0.646 ± 0.029 | 0.7 ± 0.036 | 0.272 ± 0.019 | 0.298 ± 0.035 | 0.56 ± 0.032 | 0.476 ± 0.0099
SGRFRFVLLGLV | 0.558 ± 0.032 | 0.601 ± 0.008 | 0.455 ± 0.03 | 0.632 ± 0.00071 | 0.122 ± 0.023 | 0.156 ± 0.023 | 0.253 ± 0.0054 | 0.203 ± 0.021
SGVVWFYIFCLS | 0.4729 ± 0.00067 | 0.535 ± 0.0018 | 0.322 ± 0.038 | 0.57 ± 0.015 | 0.254 ± 0.014 | 0.279 ± 0.043 | 0.494 ± 0.023 | 0.361 ± 0.011
SINKLLILIKSI | 0.429 ± 0.026 | 0.618 ± 0.028 | 0.525 ± 0.03 | 0.629 ± 0.018 | 0.0798 ± 0.019 | 0.0738 ± 0.0087 | 0.112 ± 0.069 | 0.13 ± 0.028
SIWVGSRFRWVV | 0.642 ± 0.0088 | 0.7361 ± 0.0011 | 0.665 ± 0.034 | 0.7748 ± 0.0015 | 0.134 ± 0.017 | 0.134 ± 0.021 | 0.344 ± 0.052 | 0.35 ± 0.062
SLCELRCLLRVG | 0.573 ± 0.027 | 0.636 ± 0.022 | 0.522 ± 0.017 | 0.631 ± 0.0023 | 0.471 ± 0.018 | 0.481 ± 0.018 | 0.606 ± 0.013 | 0.473 ± 0.021
SLCSSVQVWSVV | 0.7 ± 0.049 | 0.763 ± 0.024 | 0.612 ± 0.013 | 0.732 ± 0.011 | 0.5868 ± 0.0032 | 0.634 ± 0.037 | 0.716 ± 0.011 | 0.693 ± 0.027
SLLFPLPRPLLD | 0.7 ± 0.013 | 0.754 ± 0.018 | 0.677 ± 0.015 | 0.719 ± 0.016 | 0.686 ± 0.014 | 0.672 ± 0.024 | 0.7183 ± 0.005 | 0.731 ± 0.016
SLRSRSLRCRLS | 0.619 ± 0.056 | 0.755 ± 0.024 | 0.723 ± 0.0081 | 0.749 ± 0.031 | 0.288 ± 0.0071 | 0.297 ± 0.0095 | 0.489 ± 0.031 | 0.38 ± 0.005
SPCLPRGVLFLA | 0.603 ± 0.055 | 0.7253 ± 0.004 | 0.667 ± 0.031 | 0.716 ± 0.005 | 0.2729 ± 0.0022 | 0.297 ± 0.022 | 0.437 ± 0.0099 | 0.367 ± 0.0063
SPCLSWTLVLVL | 0.275 ± 0.013 | 0.324 ± 0.0061 | 0.215 ± 0.026 | 0.407 ± 0.0077 | 0.195 ± 0.0034 | 0.203 ± 0.016 | 0.345 ± 0.0051 | 0.302 ± 0.037
SRLMLPLSPLVC | 0.41 ± 0.011 | 0.455 ± 0.0065 | 0.301 ± 0.045 | 0.5021 ± 0.0044 | 0.2762 ± 0.0016 | 0.313 ± 0.016 | 0.465 ± 0.0065 | 0.379 ± 0.045
SRPLYVMICTRV | 0.4376 ± 0.00075 | 0.522 ± 0.035 | 0.327 ± 0.024 | 0.558 ± 0.018 | 0.246 ± 0.0034 | 0.287 ± 0.018 | 0.503 ± 0.022 | 0.386 ± 0.0086
SRSYNSPSLYVC | 0.498 ± 0.061 | 0.6496 ± 0.0057 | 0.605 ± 0.029 | 0.712 ± 0.0089 | 0.0903 ± 0.0041 | 0.102 ± 0.016 | 0.109 ± 0.0097 | 0.147 ± 0.009
SRVCVLTGISCA | 0.568 ± 0.011 | 0.606 ± 0.016 | 0.416 ± 0.029 | 0.6023 ± 0.0038 | 0.387 ± 0.013 | 0.421 ± 0.011 | 0.572 ± 0.013 | 0.473 ± 0.018
